Data reported in patent US12383631.

Legend:
[1] = biological target: Composition A (LZM-009 conjugated to IL-18 polypeptide of SEQ ID NO: 30) (human) (UniProt Q14116)
[2] = biological target: Composition C (Trastuzumab/Herceptin conjugated to IL-18 polypeptide of SEQ ID NO: 30) (human)
[3] = biological target: Composition D (LZM-009 conjugated to IL-18 polypeptide of SEQ ID NO: 31) (human) (UniProt Q14116)
[4] = biological target: IL-18 polypeptide of SEQ ID NO: 31 (C38A, C76A, C127A) (human) (UniProt Q14116)
[5] = biological target: native IL-18 wild-type (SEQ ID NO: 1) (human) (UniProt Q14116)
[6] = biological target: Composition C (Trastuzumab/Herceptin conjugated to IL-18 polypeptide of SEQ ID NO: 30) (human); assay: cell-based or functional assay
[7] = biological target: IL-18 polypeptide C144 (human) (UniProt Q14116); assay: cell-based or functional assay
[8] = biological target: IL-18 polypeptide C147 (human) (UniProt Q14116); assay: cell-based or functional assay
[9] = biological target: IL-18 polypeptide C148 (human) (UniProt Q14116); assay: cell-based or functional assay
[10] = biological target: IL-18 polypeptide C152 (human) (UniProt Q14116); assay: cell-based or functional assay
[11] = biological target: IL-18 polypeptide C154 (human) (UniProt Q14116); assay: cell-based or functional assay
[12] = biological target: IL-18 polypeptide C156 (human) (UniProt Q14116); assay: cell-based or functional assay
[13] = biological target: IL-18 polypeptide C158 (human) (UniProt Q14116); assay: cell-based or functional assay
[14] = biological target: IL-18 polypeptide C162 (human) (UniProt Q14116); assay: cell-based or functional assay
[15] = biological target: IL-18 polypeptide C166 (human) (UniProt Q14116); assay: cell-based or functional assay
[16] = biological target: IL-18 polypeptide C168 (human) (UniProt Q14116); assay: cell-based or functional assay
[17] = biological target: IL-18 polypeptide of SEQ ID NO: 37 (S55A) (human) (UniProt Q14116); assay: cell-based or functional assay
[18] = biological target: IL-18 polypeptide of SEQ ID NO: 38 (E06K) (human) (UniProt Q14116); assay: cell-based or functional assay
[19] = biological target: IL-18 polypeptide of SEQ ID NO: 46 (E06K, K53A, S55A, M51G) (human) (UniProt Q14116); assay: cell-based or functional assay
[20] = biological target: IL-18 polypeptide of SEQ ID NO: 48 (C38S, C68S, C76S, C127S, K70C) (human) (UniProt Q14116); assay: cell-based or functional assay
[21] = biological target: IL-18 polypeptide of SEQ ID NO: 50 (E06K, K53A, T63A) (human) (UniProt Q14116); assay: cell-based or functional assay
[22] = biological target: IL-18 polypeptide of SEQ ID NO: 55 (K53A, T63A, C38S, C68S, C76S, C127S, K70C) (human) (UniProt Q14116); assay: cell-based or functional assay
[23] = biological target: IL-18 polypeptide of SEQ ID NO: 57 (E6K, C38S, K53A) (human) (UniProt Q14116); assay: cell-based or functional assay
[24] = biological target: IL-18 polypeptide of SEQ ID NO: 60 (E6K, C38Q, K53A) (human) (UniProt Q14116); assay: cell-based or functional assay
[25] = biological target: IL-18 polypeptide of SEQ ID NO: 62 (E6K, C38A, K53A, C127A) (human) (UniProt Q14116); assay: cell-based or functional assay
[26] = biological target: IL-18 polypeptide of SEQ ID NO: 9 (E6K, C38A, K53A, C68A, D98C) (human) (UniProt Q14116); assay: cell-based or functional assay

Fc fused human IL-18 binding protein isoform a (IL-18BPa; R&D systems, Cat #119-BP) (from UniProt O95998 31-194) (Fc fusion)
IC50 (read off the curve), IFNg secretion of the stimulated NK92 cells (IFNg AlphaLISA signal) [1]: 8 nM | IC50 (read off the curve), IFNg secretion of the stimulated NK92 cells (IFNg AlphaLISA signal) [2]: 10 nM | IC50 (read off the curve), IFNg secretion of the stimulated NK92 cells (IFNg AlphaLISA signal) [3]: 0.1 nM | IC50 (read off the curve), IFNg secretion of the stimulated NK92 cells (IFNg AlphaLISA signal) [4]: 0.3 nM | IC50 (read off the curve), IFNg secretion of the stimulated NK92 cells (IFNg AlphaLISA signal) [5]: 1 nM | IC50 of IL-18BPa on IFNγ secretion by NK92 cells [6]: 21.4 nM | IC50 of IL-18BP on IFNγ secretion, NK92 cells [7]: 7.52 nM | IC50 of IL-18BP on IFNγ secretion, NK92 cells [8]: 47.6 nM | IC50 of IL-18BP on IFNγ secretion, NK92 cells [9]: 5.05 nM | IC50 of IL-18BP on IFNγ secretion, NK92 cells [10]: 7.85 nM | IC50 of IL-18BP on IFNγ secretion, NK92 cells [11]: 3.71 nM | IC50 of IL-18BP on IFNγ secretion, NK92 cells [12]: 0.681 nM | IC50 of IL-18BP on IFNγ secretion, NK92 cells [13]: 3.98 nM | IC50 of IL-18BP on IFNγ secretion, NK92 cells [14]: 7.29 nM | IC50 of IL-18BP on IFNγ secretion, NK92 cells [15]: 0.44 nM | IC50 of IL-18BP on IFNγ secretion, NK92 cells [16]: 0.176 nM | IC50 of IL-18BP on IFNγ secretion, NK92 cells [17]: 4.46 nM | IC50 of IL-18BP on IFNγ secretion, NK92 cells [18]: 7.79 nM | IC50 of IL-18BP on IFNγ secretion, NK92 cells [19]: 0.189 nM | IC50 of IL-18BP on IFNγ secretion, NK92 cells [20]: 0.114 nM | IC50 of IL-18BP on IFNγ secretion, NK92 cells [21]: > 1000 nM | IC50 of IL-18BP on IFNγ secretion, NK92 cells [22]: > 1000 nM | IC50 of IL-18BP on IFNγ secretion, NK92 cells [23]: 146 nM | IC50 of IL-18BP on IFNγ secretion, NK92 cells [24]: 780 nM | IC50 of IL-18BP on IFNγ secretion, NK92 cells [25]: 284 nM | IC50 of IL-18BP on IFNγ secretion, NK92 cells [26]: 961 nM
